The target in the test is VEGF (UniProt P15692). Put plainly: SPR (BIAcore). The conditions noted are these: Fab. In general terms: SPR reads the build-up and loss of mass on a sensor chip optically.
Sequence of VEGF (P15692 other isoform, or with tags, fused parts or gaps): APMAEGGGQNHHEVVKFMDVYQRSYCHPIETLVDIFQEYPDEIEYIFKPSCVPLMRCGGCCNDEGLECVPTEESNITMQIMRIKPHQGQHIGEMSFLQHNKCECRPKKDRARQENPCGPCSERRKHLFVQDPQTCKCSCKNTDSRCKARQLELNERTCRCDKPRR

One may read the Kd as the equilibrium constant for the complex coming apart. The substance anti-VEGF Fab (Lucentics) control came in with a dissociation constant (Kd) of 0.103 nM.
